Data as given in the supplement of paper PMC10567573.

B1: FBXO3 (parent)
chain: GGFPIIRDQIFRYVHDPECVATTG

Variants of: B1
Assay: protein stability index of a GFP-peptide fusion (GPS, HEK-293T) (PSI 1-6); higher = more stable
Settings: c terminus: a fixed tail appended
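Further: lentivirally expressed fusions sorted by FACS into six bins by GFP to DsRed ratio, PSI derived from sequencing read proportions per bin multiplied by bin number.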

Compared with GGFPHIRDQIFRYVHDPECVATTG [I5H], GGFPRIRDQIFRYVHDPECVATTG [I5R] is lower in protein stability index: 2.14 for the first, 1.86 for the second.

Going from GGFPKIRDQIFRYVHDPECVATTG [I5K] to GGFPFIRDQIFRYVHDPECVATTG [I5F], the protein stability index rises from 1.19 to 1.58.

First: GGFPGIRDQIFRYVHDPECVATTG [I5G]
Second: GGFPDIRDQIFRYVHDPECVATTG [I5D]
The protein stability index of the first is lower: 2.32 for the first, 2.61 for the second.

Going from GGFPEIRDQIFRYVHDPECVATTG [I5E] to GGFPWIRDQIFRYVHDPECVATTG [I5W], the protein stability index falls from 2.64 to 1.53.

First: GGFPTIRDQIFRYVHDPECVATTG [I5T]
Second: GGFPQIRDQIFRYVHDPECVATTG [I5Q]
The protein stability index of the first is higher: 2.28 for the first, 1.59 for the second.

Going from GGFPSIRDQIFRYVHDPECVATTG [I5S] to GGFPYIRDQIFRYVHDPECVATTG [I5Y], the protein stability index rises from 2.23 to 2.26.

First: GGFPLIRDQIFRYVHDPECVATTG [I5L]
Second: GGFPMIRDQIFRYVHDPECVATTG [I5M]
The protein stability index of the first is lower: 1.64 for the first, 2.71 for the second.

Going from GGFPPIRDQIFRYVHDPECVATTG [I5P] to GGFPVIRDQIFRYVHDPECVATTG [I5V], the protein stability index falls from 1.85 to 1.58.

Compared with GGFPNIRDQIFRYVHDPECVATTG [I5N], GGFPIDRDQIFRYVHDPECVATTG [I6D] is higher in protein stability index: 2.4 for the first, 3.56 for the second.

First: GGFPIWRDQIFRYVHDPECVATTG [I6W]
Second: GGFPILRDQIFRYVHDPECVATTG [I6L]
The protein stability index of the first is lower: 1.82 for the first, 2.16 for the second.

Compared with GGFPIFRDQIFRYVHDPECVATTG [I6F], GGFPINRDQIFRYVHDPECVATTG [I6N] is higher in protein stability index: 1.46 for the first, 2.34 for the second.

Compared with GGFPIQRDQIFRYVHDPECVATTG [I6Q], GGFPISRDQIFRYVHDPECVATTG [I6S] is lower in protein stability index: 2.69 for the first, 2.44 for the second.

First: GGFPIGRDQIFRYVHDPECVATTG [I6G]
Second: GGFPIERDQIFRYVHDPECVATTG [I6E]
The protein stability index of the first is lower: 2.23 for the first, 3.52 for the second.

Going from GGFPIPRDQIFRYVHDPECVATTG [I6P] to GGFPIRRDQIFRYVHDPECVATTG [I6R], the protein stability index falls from 2.35 to 2.13.

Compared with GGFPIHRDQIFRYVHDPECVATTG [I6H], GGFPIMRDQIFRYVHDPECVATTG [I6M] is lower in protein stability index: 2.32 for the first, 1.46 for the second.

Compared with GGFPICRDQIFRYVHDPECVATTG [I6C], GGFPIYRDQIFRYVHDPECVATTG [I6Y] is higher in protein stability index: 1.96 for the first, 1.99 for the second.

Going from GGFPIARDQIFRYVHDPECVATTG [I6A] to GGFPIVRDQIFRYVHDPECVATTG [I6V], the protein stability index falls from 2.57 to 1.61.

First: GGFPIKRDQIFRYVHDPECVATTG [I6K]
Second: GGFPITRDQIFRYVHDPECVATTG [I6T]
The protein stability index of the first is lower: 2.52 for the first, 2.76 for the second.

Compared with GGFPIIRDQCFRYVHDPECVATTG [I10C], GGFPIIRDQAFRYVHDPECVATTG [I10A] is higher in protein stability index: 2.19 for the first, 2.38 for the second.

Going from GGFPIIRDQEFRYVHDPECVATTG [I10E] to GGFPIIRDQFFRYVHDPECVATTG [I10F], the protein stability index falls from 3.66 to 2.13.

Compared with GGFPIIRDQDFRYVHDPECVATTG [I10D], GGFPIIRDQHFRYVHDPECVATTG [I10H] is lower in protein stability index: 3.6 for the first, 3.27 for the second.

Compared with GGFPIIRDQKFRYVHDPECVATTG [I10K], GGFPIIRDQLFRYVHDPECVATTG [I10L] is lower in protein stability index: 3.07 for the first, 2.17 for the second.

Compared with GGFPIIRDQGFRYVHDPECVATTG [I10G], GGFPIIEDQIFRYVHDPECVATTG [R7E] is higher in protein stability index: 2.04 for the first, 3.79 for the second.

First: GGFPIIFDQIFRYVHDPECVATTG [R7F]
Second: GGFPIIGDQIFRYVHDPECVATTG [R7G]
The protein stability index of the first is lower: 1.67 for the first, 2.99 for the second.

Compared with GGFPIIIDQIFRYVHDPECVATTG [R7I], GGFPIINDQIFRYVHDPECVATTG [R7N] is higher in protein stability index: 1.69 for the first, 2.83 for the second.

First: GGFPIIPDQIFRYVHDPECVATTG [R7P]
Second: GGFPIITDQIFRYVHDPECVATTG [R7T]
The protein stability index of the first is lower: 2.47 for the first, 2.72 for the second.

Compared with GGFPIIVDQIFRYVHDPECVATTG [R7V], GGFPIIHDQIFRYVHDPECVATTG [R7H] is higher in protein stability index: 1.73 for the first, 2.56 for the second.

Compared with GGFPIIWDQIFRYVHDPECVATTG [R7W], GGFPIICDQIFRYVHDPECVATTG [R7C] is higher in protein stability index: 2.21 for the first, 2.35 for the second.

Compared with GGFPIIDDQIFRYVHDPECVATTG [R7D], GGFPIIMDQIFRYVHDPECVATTG [R7M] is lower in protein stability index: 3.92 for the first, 1.53 for the second.

Going from GGFPIILDQIFRYVHDPECVATTG [R7L] to GGFPIIQDQIFRYVHDPECVATTG [R7Q], the protein stability index rises from 1.32 to 3.09.

First: GGFPIIKDQIFRYVHDPECVATTG [R7K]
Second: GGFPIISDQIFRYVHDPECVATTG [R7S]
The protein stability index of the first is lower: 2.4 for the first, 2.45 for the second.

Going from GGFPIIYDQIFRYVHDPECVATTG [R7Y] to GGFPIIADQIFRYVHDPECVATTG [R7A], the protein stability index rises from 1.87 to 3.41.

First: GGFPIIRSQIFRYVHDPECVATTG [D8S]
Second: GGFPIIREQIFRYVHDPECVATTG [D8E]
The protein stability index of the first is higher: 1.61 for the first, 1.52 for the second.

First: GGFPIIRPQIFRYVHDPECVATTG [D8P]
Second: GGFPIIRVQIFRYVHDPECVATTG [D8V]
The protein stability index of the first is lower: 1.27 for the first, 2.54 for the second.

Going from GGFPIIRKQIFRYVHDPECVATTG [D8K] to GGFPIIRYQIFRYVHDPECVATTG [D8Y], the protein stability index rises from 2.39 to 3.32.

First: GGFPIIRTQIFRYVHDPECVATTG [D8T]
Second: GGFPIIRIQIFRYVHDPECVATTG [D8I]
The protein stability index of the first is lower: 1.24 for the first, 3.17 for the second.

First: GGFPIIRRQIFRYVHDPECVATTG [D8R]
Second: GGFPIIRAQIFRYVHDPECVATTG [D8A]
The protein stability index of the first is higher: 3.49 for the first, 2.14 for the second.

Compared with GGFPIIRNQIFRYVHDPECVATTG [D8N], GGFPIIRQQIFRYVHDPECVATTG [D8Q] is higher in protein stability index: 1.54 for the first, 1.7 for the second.

Going from GGFPIIRDVIFRYVHDPECVATTG [Q9V] to GGFPIIRDLIFRYVHDPECVATTG [Q9L], the protein stability index falls from 2.95 to 2.08.

Going from GGFPIIRDPIFRYVHDPECVATTG [Q9P] to GGFPIIRDDIFRYVHDPECVATTG [Q9D], the protein stability index rises from 2.65 to 2.83.

First: GGFPIIRDGIFRYVHDPECVATTG [Q9G]
Second: GGFPIIRDTIFRYVHDPECVATTG [Q9T]
The protein stability index of the first is higher: 1.75 for the first, 1.58 for the second.

First: GGFPIIRDSIFRYVHDPECVATTG [Q9S]
Second: GGFPIIRDNIFRYVHDPECVATTG [Q9N]
The protein stability index of the first is lower: 1.8 for the first, 2.29 for the second.

First: GGFPIIRDRIFRYVHDPECVATTG [Q9R]
Second: GGFPIIRDWIFRYVHDPECVATTG [Q9W]
The protein stability index of the first is lower: 2.18 for the first, 2.29 for the second.

First: GGFPIIRDFIFRYVHDPECVATTG [Q9F]
Second: GGFPIIRDIIFRYVHDPECVATTG [Q9I]
The protein stability index of the first is higher: 2.43 for the first, 1.9 for the second.

Going from GGFPIIRDKIFRYVHDPECVATTG [Q9K] to GGFPIIRDAIFRYVHDPECVATTG [Q9A], the protein stability index rises from 1.75 to 2.13.

Going from GGFPIIRDYIFRYVHDPECVATTG [Q9Y] to GGFPIIRDCIFRYVHDPECVATTG [Q9C], the protein stability index falls from 2.13 to 1.87.

Going from GGFPIIRDHIFRYVHDPECVATTG [Q9H] to GGFPIIRDEIFRYVHDPECVATTG [Q9E], the protein stability index rises from 1.64 to 2.09.
